Target: T1, Bd0109 (Bdellovibrio bacteriovorus HD100, UniProt Q6MRH5 1-550)
T1 sequence (looked up): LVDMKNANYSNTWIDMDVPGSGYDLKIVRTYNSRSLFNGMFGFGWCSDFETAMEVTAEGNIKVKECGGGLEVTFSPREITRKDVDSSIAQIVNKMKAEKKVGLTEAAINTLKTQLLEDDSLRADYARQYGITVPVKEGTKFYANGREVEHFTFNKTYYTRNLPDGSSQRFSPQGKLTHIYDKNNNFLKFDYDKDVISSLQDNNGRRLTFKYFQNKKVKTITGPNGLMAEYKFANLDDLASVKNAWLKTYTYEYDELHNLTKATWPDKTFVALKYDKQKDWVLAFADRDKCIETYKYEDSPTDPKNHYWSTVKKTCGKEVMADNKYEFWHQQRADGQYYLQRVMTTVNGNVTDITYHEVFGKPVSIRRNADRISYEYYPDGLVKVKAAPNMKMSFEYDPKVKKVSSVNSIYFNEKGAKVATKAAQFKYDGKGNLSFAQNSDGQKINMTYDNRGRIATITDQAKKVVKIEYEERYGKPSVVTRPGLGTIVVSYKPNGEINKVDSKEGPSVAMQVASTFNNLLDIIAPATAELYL
Assay: ITC; 1.2 mM Bd0108 titrated into 0.02 mM Bd0109; VP-ITC, 25°C; 20 mM Tris pH 7.0 100 mM NaCl 1 mM β-ME; one-site model
Details: both partners purified

B1: Bd0108 (natural protein, Bdellovibrio bacteriovorus HD100)
chain: SHMADENANRPVNPGEDPNEAFRSTPFEATTSALGDCRECIAYRTGATTGKGSRRHDDTVSREIKGSSATPGGSEKAGTGRQ
modifications: disulfide between C56 and C59; 15N-labelled in the NMR titration
notes: tripeptide left on the mature N-terminus after thrombin cleavage of the His tag (cloning artefact); Bd0108 of Bdellovibrio bacteriovorus HD100, a 101 amino acid protein with an N-terminal Sec signal peptide; amino acids 23-101 cloned into pET28b; The assigned cloning artefacts (residues 21 and 22) in the titration point to this cytoplasmic construct and not to the PelB construct; also called …
Question: B1 was tested. Which Kd did it give?
Answer: The Kd was 45 µM.

Question: And the dH?
Answer: The dH was -2.08 kcal/mol.

Question: And the “stoichiometry N” value?
Answer: The value was 3.1.
